IntAct's records for PubMed 17403664

B1: Differentially expressed in FDCP 6 (Mus musculus), Q8C2K1 (parent)
chain: MALRKELLKSIWYAFTALDVEKSGKVSKSQLKVLSHNLYTVLNIPHDPVALEEHFRDDDDGPVSSQGYMPYLNKYILDKVEEGAFVKEHFDELCWTLTAKKNYRADGIGSSPLSNQDAFRLWCLFNFLSEDKYPLIMVPDEVEYLLKKLLGSLSLEMGLGELEELLAQDAQSAQTAVGLSVWQFLELFNSGRCLRGVGRDSLSMAIQEVYQELIQDVLKQGYLWKRGHLRRNWAERWFQLQPSSLCYFGSEECKEKRGTIPLDAHCCVEVLPDREGKRCMFCVKTASRTYEMSASDTRQRQEWTAAIQTAIRLQAEGKTSLHKDLKQKRREQREQRERRRAAKEEELLRLQQLQEEKERKLQELELLQEAQRQAERLLQEEEERRRSQHKELQQALEGQLREAEQARASMQAEMELKKEEAARQRQRIAELEEMQERLQEALQLEVKARRDEEAVRLAQTRLLEEEEEKLKQLMHLKEEQERYIERAQQEKQELQQEMALQSRSLQHAQQQLEEVRQNRQRADEDVEAAQRKLRQASTNVKHWNVQMNRLMHPIEPGDKRPTTSSSFTGFQPPPLARRDSSLKRLTRWGSQGNRTLSVNSSEQKSLNGGDETPILALASQEEKLDPAPGN
partner: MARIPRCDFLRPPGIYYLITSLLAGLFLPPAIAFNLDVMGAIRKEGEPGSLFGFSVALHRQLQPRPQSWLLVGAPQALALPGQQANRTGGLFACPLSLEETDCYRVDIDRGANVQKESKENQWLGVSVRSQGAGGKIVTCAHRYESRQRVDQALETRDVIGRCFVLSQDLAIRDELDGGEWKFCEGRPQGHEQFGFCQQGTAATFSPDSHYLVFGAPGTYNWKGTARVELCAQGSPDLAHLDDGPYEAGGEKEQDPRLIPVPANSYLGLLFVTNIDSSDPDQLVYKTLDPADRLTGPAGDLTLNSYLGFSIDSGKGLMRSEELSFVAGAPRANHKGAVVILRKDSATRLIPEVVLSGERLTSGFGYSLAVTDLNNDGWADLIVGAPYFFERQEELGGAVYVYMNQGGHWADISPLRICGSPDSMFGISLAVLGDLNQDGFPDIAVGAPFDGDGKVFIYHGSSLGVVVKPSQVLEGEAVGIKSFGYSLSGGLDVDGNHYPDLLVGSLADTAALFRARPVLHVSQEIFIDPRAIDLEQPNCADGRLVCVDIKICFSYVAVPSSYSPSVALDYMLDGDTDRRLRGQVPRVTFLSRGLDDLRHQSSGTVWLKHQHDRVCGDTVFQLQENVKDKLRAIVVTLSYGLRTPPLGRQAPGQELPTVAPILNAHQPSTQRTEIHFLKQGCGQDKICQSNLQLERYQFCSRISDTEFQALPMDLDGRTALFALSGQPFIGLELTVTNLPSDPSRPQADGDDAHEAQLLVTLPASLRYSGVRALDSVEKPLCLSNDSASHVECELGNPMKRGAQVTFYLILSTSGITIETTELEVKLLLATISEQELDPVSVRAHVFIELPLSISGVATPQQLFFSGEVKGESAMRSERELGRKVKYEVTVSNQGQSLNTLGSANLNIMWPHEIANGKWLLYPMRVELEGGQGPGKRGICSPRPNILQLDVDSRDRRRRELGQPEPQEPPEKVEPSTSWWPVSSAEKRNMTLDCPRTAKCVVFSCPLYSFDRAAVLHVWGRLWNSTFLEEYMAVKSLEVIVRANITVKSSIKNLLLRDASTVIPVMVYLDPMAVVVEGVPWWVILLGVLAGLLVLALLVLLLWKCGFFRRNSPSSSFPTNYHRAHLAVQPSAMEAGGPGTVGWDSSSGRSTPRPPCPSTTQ

Variants of: B1
Details: with Itga7, Q61738-6

Row | effect of a mutation on the interaction | Variant
1 | decreasing interaction | Y210E
